B1: Transcription factor PIF3 (Arabidopsis thaliana (Mouse-ear cress)), O80536 (parent)
chain: MPLFELFRLTKAKLESAQDRNPSPPVDEVVELVWENGQISTQSQSSRSRNIPPPQANSSRAREIGNGSKTTMVDEIPMSVPSLMTGLSQDDDFVPWLNHHPSLDGYCSDFLRDVSSPVTVNEQESDMAVNQTAFPLFQRRKDGNESAPAASSSQYNGFQSHSLYGSDRARDLPSQQTNPDRFTQTQEPLITSNKPSLVNFSHFLRPATFAKTTNNNLHDTKEKSPQSPPNVFQTRVLGAKDSEDKVLNESVASATPKDNQKACLISEDSCRKDQESEKAVVCSSVGSGNSLDGPSESPSLSLKRKHSNIQDIDCHSEDVEEESGDGRKEAGPSRTGLGSKRSRSAEVHNLSERRRRDRINEKMRALQELIPNCNKVDKASMLDEAIEYLKSLQLQVQIMSMASGYYLPPAVMFPPGMGHYPAAAAAMAMGMGMPYAMGLPDLSRGGSSVNHGPQFQVSGMQQQPVAMGIPRVSGGGIFAGSSTIGNGSTRDLSGSKDQTTTNNNSNLKPIKRKQGSSDQFCGSS
B2: Transcription factor PIF6 (Arabidopsis thaliana (Mouse-ear cress)), Q8L5W7 (parent)
chain: MMFLPTDYCCRLSDQEYMELVFENGQILAKGQRSNVSLHNQRTKSIMDLYEAEYNEDFMKSIIHGGGGAITNLGDTQVVPQSHVAAAHETNMLESNKHVDDSETLKASSSKRMMVDYHNRKKIKFIPPDEQSVVADRSFKLGFDTSSVGFTEDSEGSMYLSSSLDDESDDARPQVPARTRKALVKRKRNAEAYNSPERNQRNDINKKMRTLQNLLPNSHKDDNESMLDEAINYMTNLQLQVQMMTMGNRFVTPSMMMPLGPNYSQMGLAMGVGMQMGEQQFLPAHVLGAGLPGINDSADMLRFLNHPGLMPMQNSAPFIPTENCSPQSVPPSCAAFPNQIPNPNSLSNLDGATLHKKSRKTNR
B3: Transcription factor PIF4 (Arabidopsis thaliana (Mouse-ear cress)), Q8W2F3-2 (parent)
chain: MEHQGWSFEENYSLSTNRRSIRPQDELVELLWRDGQVVLQSQTHREQTQTQKQDHHEEALRSSTFLEDQETVSWIQYPPDEDPFEPDDFSSHFFSTMDPLQRPTSETVKPKSSPEPPQVMVKPKACPDPPPQVMPPPKFRLTNSSSGIRETEMEQYSVTTVGPSHCGSNPSQNDLDVSMSHDRSKNIEEKLNPNASSSSGGSSGCSFGKDIKEMASGRCITTDRKRKRINHTDESVSLSDAIGNKSNQRSGSNRRSRAAEVHNLSERVLHRFVYIIYNI
B4: Transcription factor PIF5 (Arabidopsis thaliana (Mouse-ear cress)), Q84LH8 (parent)
chain: MEQVFADWNFEDNFHMSTNKRSIRPEDELVELLWRDGQVVLQSQARREPSVQVQTHKQETLRKPNNIFLDNQETVQKPNYAALDDQETVSWIQYPPDDVIDPFESEFSSHFFSSIDHLGGPEKPRTIEETVKHEAQAMAPPKFRSSVITVGPSHCGSNQSTNIHQATTLPVSMSDRSKNVEERLDTSSGGSSGCSYGRNNKETVSGTSVTIDRKRKHVMDADQESVSQSDIGLTSTDDQTMGNKSSQRSGSTRRSRAAEVHNLSERRRRDRINERMKALQELIPHCSRTDKASILDEAIDYLKSLQMQLQVMWMGSGMAAAAAAAASPMMFPGVQSSPYINQMAMQSQMQLSQFPVMNRSAPQNHPGLVCQNPVQLQLQAQNQILSEQLARYMGGIPQMPPAGNQMQTVQQQPADMLGFGSPAGPQSQLSAPATTDSLHMGKIG

Variants of: B1
Settings: with phyb_arath PHYB
With E31A;G37A the “effect of a mutation on the interaction” value was “decreasing interaction”.

Variants of: B2
Settings: with phyb_arath PHYB
In the case of E19A;G25A, the “effect of a mutation on the interaction” value is reported as “decreasing interaction”.

Variants of: B3
Settings: with phyb_arath PHYB
With G35A the “effect of a mutation on the interaction” value was “decreasing interaction”. E29A;G35A was tested, and the “effect of a mutation on the interaction” value was “decreasing interaction”.

Variants of: B4
Settings: with phyb_arath PHYB
With E31A the “effect of a mutation on the interaction” value was “decreasing interaction”. In the case of Q38A, the “effect of a mutation on the interaction” value is reported as “decreasing interaction”. In the case of G37A, the “effect of a mutation on the interaction” value is reported as “decreasing interaction”. In the case of L32A, the “effect of a mutation on the interaction” value is reported as “decreasing interaction”.

Source: IntAct's records for PubMed 15486100
